Test results: patent CN118638216A (CHENZHOU NO 1 PEOPLES HOSPITAL, dated 2024)

Legend:
[1] = target: SARS-CoV-2 Gamma突变株S蛋白 (假病毒, Genebank:MZ427312.1) (SARS-CoV-2 Gamma突变株); assay: cell-based or functional assay
SARS-CoV-2 S1蛋白(Sino …) = target: T1, SARS-CoV-2 S1蛋白(Sino Biological，货号:40591-V08H) (SARS-CoV-2, UniProt P0DTC2 16-685); assay: ELISA, S1 protein coated at 2 μg/mL, antibody at 1 μg/mL
T1 construct: domain: S1

[2] = target: T2, SARS-CoV-2 Wuhan-Hu-1 S蛋白(Sino Biological，货号:40589-V08B1) (SARS-CoV-2 Wuhan-Hu-1, UniProt P0DTC2 14-1213); assay: ELISA screen, S protein coated at 2 μg/mL, antibody at 1 μg/mL
T2 construct: extracellular domain

SARS-CoV S1蛋白(Sino …) = target: SARS-CoV S1蛋白(Sino Biological，货号:40150-V08B1) (SARS-CoV, UniProt P59594 14-667); assay: ELISA, S1 protein coated at 2 μg/mL, antibody titrated from 10 μg/mL
SARS-CoV-2 S2蛋白(Sino …) = target: T3, SARS-CoV-2 S2蛋白(Sino Biological，货号:40590-V08B) (SARS-CoV-2, UniProt P0DTC2 686-1213); assay: ELISA, S2 protein coated at 2 μg/mL, antibody at 1 μg/mL, anti-human IgG-HRP
T3 construct: domain: S2

B1: 全人源广谱抗sarbecovirus和/或新冠突变株的抗体(VSCM8-83) (antibody, V domains shown)
VH: EVQLVEFGGGLVQPGGSLRLSCAASGFAVSSNYMSWVRQAPGKGLEWVSVIYGDGTTYYGDSVKGRFTISRHNSKNTLYLQMNSLRTEDTAVYYCARIVSEAFDLWGQGTMVTVSS
VL: DIQMTQSPSTLSASVGDRVTITCRASQSIGRWLAWYQQKPGKAPKLLIYMASILESGVPSRFSGSGSATEFTLTISSLQPDDFATYYCQQYNGYSQYTFGQGTKLEIKR
[1]
  假病毒中和 IC50: 0.0207 µg/mL
SARS-CoV-2 S1蛋白(Sino …)
  binding result: binds
[2]
  binding result: binds
SARS-CoV S1蛋白(Sino …)
  binding result: binds
SARS-CoV-2 S2蛋白(Sino …)
  binding result: no binding (tested: 1μg/mL)
